No end group written: not given here. *: point of attachment. aminohexane = linker joining biotin to the N-terminal residue; Biotin = O=C1N[C@H]2[C@H](CS[C@H]2CCCCC(=O)*)N1
Biological target: CDK4/6
Test: cell-based or functional assay
Conditions: scale: relative value

Row | Binder | CDK4/6 Reactivity
1 | {Biotin-aminohexane}-GMPFSPNPWWRGGGG [Polypeptide 13] | 5
2 | {Biotin-aminohexane}-GMPWSPAPWWRGGGG [Polypeptide 7] | 8
3 | {Biotin-aminohexane}-GAPWSPNPWWRGGGG [Polypeptide 3] | 33
4 | {Biotin-aminohexane}-GMPASPNPWWRGGGG [Polypeptide 5] | 1
5 | {Biotin-aminohexane}-GMPWSPNPWWRAGGG [Polypeptide 12] | 6
6 | {Biotin-aminohexane}-GMAWSPNPWWRGGGG [Polypeptide 4] | 5
7 | {Biotin-aminohexane}-GMPWSPNPWWAGGGG [Polypeptide 11] | 3
8 | {Biotin-aminohexane}-GMPWSPNAWWRGGGG [Polypeptide 8] | 7
9 | {Biotin-aminohexane}-GMPWSPNPWWRGGGG [Polypeptide 1] | 13
10 | {Biotin-aminohexane}-AMPWSPNPWWRGGGG [Polypeptide 2] | 15
11 | {Biotin-aminohexane}-GMPWSANPWWRGGGG [Polypeptide 6] | 1
12 | {Biotin-aminohexane}-GMPWSPNPWARGGGG [Polypeptide 10] | 15
13 | {Biotin-aminohexane}-GMPWSPNPAWRGGGG [Polypeptide 9] | 7

Further lines, results first:

Row | CDK4/6 Reactivity | Binder
14 | 2 | {Biotin-aminohexane}-GMPWSWNPWWRGGGG [Polypeptide 15]
15 | 7 | {Biotin-aminohexane}-GMPWSPNPWWHGGGG [Polypeptide A]
16 | 7 | {Biotin-aminohexane}-AMPWSPAPAARAGGG [Polypeptide F]
17 | 5 | {Biotin-aminohexane}-GMWWSPNPWWRGGGG [Polypeptide C]
18 | 5 | {Biotin-aminohexane}-GMPYSPNPWWRGGGG [Polypeptide 14]
19 | 5 | {Biotin-aminohexane}-GMPWSPNPWWKGGGG [Polypeptide B]
20 | 5 | {Biotin-aminohexane}-GMFWSPNPWWRGGGG [Polypeptide D]
21 | 2 | {Biotin-aminohexane}-GMPWSYNPWWRGGGG [Polypeptide 17]
22 | 6 | {Biotin-aminohexane}-GMYWSPNPWWRGGGG [Polypeptide E]
23 | 2 | {Biotin-aminohexane}-GMPWSFNPWWRGGGG [Polypeptide 16]
